Tests used:
[1] = system: Xatr-Xatrip; test: Kinase assay of Xatr-Xatrip complexes isolated from Xenopus egg extracts; assay type: biochemical; details: for ATR activation compared with the 972-1279 fragment: Xatr-XatripΔ222, PHAS-I, His6-human TopBP1 fragments; for activation of Xatr kinase activity toward PHAS-I: isolated Xatr-Xatrip complexes, 32P-ATP, result in words
From the text: Specifically, Applicants first isolated Xatr from egg extracts by pull-downs with FLAG-tagged Xenopus ATRIP (Xatrip). For these experiments, Applicants used both full-length Xatrip and an N-terminal truncation mutant (ΔN222) that supports normal Xatr-dependent activation of Xchk1 in egg extracts (Kumagai et al., 2004; Kim et al., 2005).
Applicants eluted the beads with FLAG peptide and mixed the eluates with a His6-tagged version of XtopBP1 that had been purified from baculovirus-infected insect cells (FIG. 1B). Finally, Applicants added ^32P-ATP and PHAS-I, a commonly used model substrate for ATR (Abraham, 2001).
Xatrip-FLAG and XatripΔN222-FLAG (20 ng/μl each) were incubated in interphase extracts containing anti-FLAG M2 antibody beads (Sigma) for 60 min at room temperature. The beads were isolated and washed twice with buffer A (10 mM HEPES-KOH (pH 7.5), 150 mM NaCl, 0.1% CHAPS, and 2.5 mM EGTA) and twice with HEPES-buffered saline (HBS; 10 mM HEPES-KOH (pH 7.5) and 150 mM NaCl). Xatr-Xatrip complexes were eluted in one-tenth the volume of the egg extract in HBS containing 0.1 mg/ml 3×-FLAG peptide (Sigma) for 60 min at 4° C. Eluates (2 μl) were used for kinase assays as described below.
Samples were incubated in 20 μl kinase buffer (50 mM Tris-HCl (pH 7.5), 10 mM MgCl2, 1 mM dithiothreitol, 100 μM nonradioactive ATP, and 100 μCi/ml [γ-^32P]ATP) containing 12.5 μg/ml PHAS-I or 50 μg/ml GST-Xmcm2 (62-122) for 30 min at room temperature. GST-XtopBP1 (972-1279) was added at a final concentration of 100 μg/ml unless indicated otherwise. In some cases, GST-Xmcm2 (62-122), GST-Xchk1 (306-352), or full-length Xchk1-Myc-His6 were used as substrates with only […] nonradioactive ATP. Reactions were terminated by boiling in gel sample buffer.

[2] = system: Xatr-Xatrip; test: Glutathione bead pull-down of Xatr and Xatrip from egg extracts; assay type: binding, Xenopus; details: egg extracts, immunoblotting
Protocol: Specifically, Applicants incubated glutathione beads containing GST-XtopBP1 (972-1279) in egg extracts, reisolated the beads, and performed immunoblotting for both Xatr and Xatrip. […] In addition, in other experiments, there was no binding of Xatr or Xatrip to beads containing GST fusions of the 1-348, 333-646, or 623-984 segments from XtopBP1 (data not shown).
Applicants also tested to see if the association of XtopBP1 with Xatr depends upon Xatrip. For this experiment, Applicants removed endogenous Xatrip from egg extracts by immunodepletion with anti-Xatrip antibodies. As described previously, this procedure leaves behind approximately 30% of the endogenous Xatr, the fraction that is not in a complex with Xatrip (Kumagai et al., 2004). Next, Applicants added GST-XtopBP1 (972-1279) to the Xatrip-depleted extracts and to mock-depleted extracts that had been prepared in parallel.

[3] = system: Xchk1; test: Ectopic phosphorylation of 35S-Xchk1 in Xenopus egg extracts without checkpoint-inducing DNA; assay type: biochemical; details: 35S-Xchk1, tautomycin, no checkpoint-inducing DNA template
Protocol: Because the GST-XtopBP1 (972-1279) fragment could activate Xatr in vitro without the inclusion of DNA, Applicants reasoned that ectopic addition of this fragment to Xenopus egg extracts might also be able to trigger the Xatr-dependent phosphorylation of Xchk1 even in the absence of a checkpoint-inducing DNA template.
Extracts from Xenopus eggs were prepared as described (Kumagai and Dunphy, 2000). A DNA replication checkpoint response was induced by addition of 50 μg/ml aphidicolin into extracts containing demembranated sperm nuclei (3000 per μl) (Kumagai and Dunphy, 2000). To monitor DNA replication, extracts containing 1000 sperm nuclei/μl were incubated with [α-^32P]dATP (Yoo et al., 2004).

[4] = system: human Mcm2 on S108; test: Phosphorylation of Mcm2 on S108 in transfected human 293T cells; assay type: cell-based
From the text: To pursue this issue further, Applicants asked whether the ATR-activating domain of TopBP1 could induce ATR-dependent phosphorylation in human cells. For this purpose, Applicants constructed a version of the enhanced green fluorescent protein (EGFP) containing the SV40 nuclear localization sequence and residues 978-1286 of human TopBP1 (equivalent to residues 972-1279 of XtopBP1). Applicants also produced the W1145R mutant of this plasmid (analogous to the W1138R mutant of XtopBP1). Applicants transfected plasmids encoding these proteins into human 293T cells and performed immunoblotting with anti-phosphopeptide antibodies that detect phosphorylation of human Mcm2 on S108 (which corresponds to S92 of Xmcm2) (Cortez et al., 2004; Yoo et al., 2004).
pEGFP-NLS-TopBP1 (978-1286), which encodes EGFP followed by a nuclear localization sequence (KKKRKV, SEQ ID NO: 11) and amino acids 978-1286 of human TopBP1, was prepared from pEGFP (Clontech) by standard polymerase chain reaction-based methods. Plasmids were transfected into 293T cells with Lipofectamine 2000 (Invitrogen).

Sequence of Xatr-Xatrip (Q9DE14 whole entry, the tested form may be a part): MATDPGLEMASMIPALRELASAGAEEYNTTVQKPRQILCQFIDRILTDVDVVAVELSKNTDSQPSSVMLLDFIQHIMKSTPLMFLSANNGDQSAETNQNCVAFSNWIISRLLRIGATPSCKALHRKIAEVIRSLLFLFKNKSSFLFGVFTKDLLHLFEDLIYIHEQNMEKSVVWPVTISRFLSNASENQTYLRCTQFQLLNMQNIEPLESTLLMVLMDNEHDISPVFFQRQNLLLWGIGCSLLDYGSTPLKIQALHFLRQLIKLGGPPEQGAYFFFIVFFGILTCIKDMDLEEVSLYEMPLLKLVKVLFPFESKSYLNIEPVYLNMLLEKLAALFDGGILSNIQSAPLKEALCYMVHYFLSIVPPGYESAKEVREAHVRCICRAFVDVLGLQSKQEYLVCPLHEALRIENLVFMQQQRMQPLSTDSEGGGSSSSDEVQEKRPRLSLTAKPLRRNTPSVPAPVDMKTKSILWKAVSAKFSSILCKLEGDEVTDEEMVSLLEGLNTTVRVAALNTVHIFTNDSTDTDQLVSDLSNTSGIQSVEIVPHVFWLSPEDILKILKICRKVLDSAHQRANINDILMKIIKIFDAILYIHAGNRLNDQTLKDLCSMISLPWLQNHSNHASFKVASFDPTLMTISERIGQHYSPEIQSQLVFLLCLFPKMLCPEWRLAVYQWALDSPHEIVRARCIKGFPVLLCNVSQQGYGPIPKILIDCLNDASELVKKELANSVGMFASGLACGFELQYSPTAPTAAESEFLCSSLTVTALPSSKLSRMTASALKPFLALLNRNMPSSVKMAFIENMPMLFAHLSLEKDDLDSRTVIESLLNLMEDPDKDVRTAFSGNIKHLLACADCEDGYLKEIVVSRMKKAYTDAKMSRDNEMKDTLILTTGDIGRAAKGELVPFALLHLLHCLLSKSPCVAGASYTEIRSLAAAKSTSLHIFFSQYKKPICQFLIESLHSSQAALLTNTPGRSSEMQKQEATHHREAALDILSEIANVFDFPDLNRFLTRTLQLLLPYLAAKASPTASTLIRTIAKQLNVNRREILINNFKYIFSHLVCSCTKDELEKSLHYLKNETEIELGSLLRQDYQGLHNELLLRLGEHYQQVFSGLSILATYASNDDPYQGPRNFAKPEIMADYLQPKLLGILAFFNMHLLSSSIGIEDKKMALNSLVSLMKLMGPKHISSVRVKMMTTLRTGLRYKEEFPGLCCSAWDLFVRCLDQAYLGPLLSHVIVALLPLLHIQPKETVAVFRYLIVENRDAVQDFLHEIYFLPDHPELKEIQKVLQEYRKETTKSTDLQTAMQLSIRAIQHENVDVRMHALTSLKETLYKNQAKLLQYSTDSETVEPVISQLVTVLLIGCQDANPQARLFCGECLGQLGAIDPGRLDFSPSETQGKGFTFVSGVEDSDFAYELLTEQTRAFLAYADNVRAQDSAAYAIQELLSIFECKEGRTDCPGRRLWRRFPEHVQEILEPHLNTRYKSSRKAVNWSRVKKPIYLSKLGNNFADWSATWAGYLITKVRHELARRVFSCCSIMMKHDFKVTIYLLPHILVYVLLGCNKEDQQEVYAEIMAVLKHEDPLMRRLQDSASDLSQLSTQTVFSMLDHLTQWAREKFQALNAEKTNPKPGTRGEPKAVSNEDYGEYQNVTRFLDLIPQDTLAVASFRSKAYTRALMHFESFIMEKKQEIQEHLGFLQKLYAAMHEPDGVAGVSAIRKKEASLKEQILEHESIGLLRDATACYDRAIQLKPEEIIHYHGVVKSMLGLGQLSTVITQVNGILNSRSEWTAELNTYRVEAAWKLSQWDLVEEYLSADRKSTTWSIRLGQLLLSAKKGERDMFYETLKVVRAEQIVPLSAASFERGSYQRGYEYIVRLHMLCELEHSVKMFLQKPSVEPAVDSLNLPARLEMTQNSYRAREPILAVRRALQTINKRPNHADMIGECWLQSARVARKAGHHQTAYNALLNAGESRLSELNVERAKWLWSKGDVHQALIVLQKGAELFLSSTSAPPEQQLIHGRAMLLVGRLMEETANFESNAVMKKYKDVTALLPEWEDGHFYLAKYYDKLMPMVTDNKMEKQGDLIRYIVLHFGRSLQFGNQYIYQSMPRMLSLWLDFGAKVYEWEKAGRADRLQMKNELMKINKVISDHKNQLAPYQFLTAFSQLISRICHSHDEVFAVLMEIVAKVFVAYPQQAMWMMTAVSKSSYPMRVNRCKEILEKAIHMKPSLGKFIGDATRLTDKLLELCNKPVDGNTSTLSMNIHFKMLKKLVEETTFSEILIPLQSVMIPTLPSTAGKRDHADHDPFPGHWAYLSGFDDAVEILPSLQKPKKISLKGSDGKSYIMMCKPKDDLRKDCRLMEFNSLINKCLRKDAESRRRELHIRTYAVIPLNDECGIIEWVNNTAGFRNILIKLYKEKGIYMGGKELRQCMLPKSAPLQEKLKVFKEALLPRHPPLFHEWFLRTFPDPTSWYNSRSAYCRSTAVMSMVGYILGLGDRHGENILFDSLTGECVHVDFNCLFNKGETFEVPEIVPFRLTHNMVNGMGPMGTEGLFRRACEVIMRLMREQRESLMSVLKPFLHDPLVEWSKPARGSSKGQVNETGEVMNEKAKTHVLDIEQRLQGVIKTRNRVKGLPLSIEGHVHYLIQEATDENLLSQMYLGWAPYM

residues 978-1192: His6-Human TopBP1 fragment containing residues 978-1192
ATR activation compared with the 972-1279 fragment [1]: almost as effective as the 972-1279 fragment

human TopBP1 (residues 978-1192): GST fusion fragment of human TopBP1 (residues 978-1192) from between BRCT domains VI and VII
activation of Xatr kinase activity toward PHAS-I [1]: activated Xatr-Xatrip very effectively

B1: residues 1050-1192: His6-Human TopBP1 fragment containing residues 1050-1192 (protein, UniProt Q92547 1050-1192, looked up, fragment)
chain: NGSGKNDSKGVLTQTLEMRENFQKQLQEIMSATSIVKPQGQRTSLSRSGCNSASSTPDSTRSARSGRSRVLEALRQSRQTVPDVNTEPSQNEQIIWDDPTAREERARLASNLQWPSCPTQYSELQVDIQNLEDSPFQKPLHDS
modifications: His6 tag
ATR activation compared with the 972-1279 fragment [1]: almost as effective as the 972-1279 fragment

B2: 1050-1286 fragment: His6-Human TopBP1 fragment, residues 1050-1286 (protein)
chain: NGSGKNDSKGVLTQTLEMRENFQKQLQEIMSATSIVKPQGQRTSLSRSGCNSASSTPDSTRSARSGRSRVLEALRQSRQTVPDVNTEPSQNEQIIWDDPTAREERARLASNLQWPSCPTQYSELQVDIQNLEDSPFQKPLHDSEIAKQAVCDPGNIRVTEAPKHPISEELETPIKDSHLIPTPQAPSIAFPLANPPVAPHPREKIITIEETHEELKKQYIFQLSSLNPQERIDYCHL
modifications: left off: small tags and cut ends
ATR activation compared with the 972-1279 fragment [1]: significant reduction

B3: 1008-1286 fragment: His6-Human TopBP1 fragment, residues 1008-1286 (protein)
chain: RLCNSRLLSAVSSTKDDEPDPLILEENDVDNMATNNKESAPSNGSGKNDSKGVLTQTLEMRENFQKQLQEIMSATSIVKPQGQRTSLSRSGCNSASSTPDSTRSARSGRSRVLEALRQSRQTVPDVNTEPSQNEQIIWDDPTAREERARLASNLQWPSCPTQYSELQVDIQNLEDSPFQKPLHDSEIAKQAVCDPGNIRVTEAPKHPISEELETPIKDSHLIPTPQAPSIAFPLANPPVAPHPREKIITIEETHEELKKQYIFQLSSLNPQERIDYCHL
modifications: left off: small tags and cut ends
ATR activation compared with the 972-1279 fragment [1]: slight, but not very significant reduction

B4: GST-XtopBP1 (1197-1513): GST fusion of XtopBP1 residues 1197-1513, containing two adjoining BRCT repeats (protein)
chain: EFEPKSAMRTPVIENNLQSPTKPDHLTPTPQAPSIAFPLANPPVAPQPREKPVQPFSKEETLKERRFQLSSLDPQERIDYSQLIEELGGVVIEKQCFDPSCTHIVVGHPLRNEKYLASMAAGKWVLHRSYLEACRAAKRFIQEEDYEWGSISILSAVTNINPQQRMLAEAAMRWRKKLQGIKQNMGIAEGAFSGWKVILNVDQTKEPGFKRLLQSGGAKVFAGHSSPLFKEASHLFADFSKLKPDEPRVNVAEAAAQGVNCLKPEYIADYLMKELPPPMNNYCLPDAIPYVRVTGTGLSRKRKTSGDVSDVKRSRHY
modifications: left off: a dimerising Fc or GST
notes: GST fusion of XtopBP1 residues 1197-1513, containing two adjoining BRCT repeats
activation of Xatr kinase activity toward PHAS-I [1]: incapable of activating Xatr
binding of Xatr and Xatrip to glutathione beads [2]: no binding
phosphorylation of Xchk1 in egg extracts [3]: did not induce any phosphorylation

B5: wild-type 978-1286 fragment of human TopBP1: EGFP containing the SV40 nuclear localization sequence and residues 978-1286 of human TopBP1, expressed from transfected plasmid (protein)
chain: KKKRKVAQECKHLPESLYPHTYNPKMSLDISAVQDGRLCNSRLLSAVSSTKDDEPDPLILEENDVDNMATNNKESAPSNGSGKNDSKGVLTQTLEMRENFQKQLQEIMSATSIVKPQGQRTSLSRSGCNSASSTPDSTRSARSGRSRVLEALRQSRQTVPDVNTEPSQNEQIIWDDPTAREERARLASNLQWPSCPTQYSELQVDIQNLEDSPFQKPLHDSEIAKQAVCDPGNIRVTEAPKHPISEELETPIKDSHLIPTPQAPSIAFPLANPPVAPHPREKIITIEETHEELKKQYIFQLSSLNPQERIDYCHL
modifications: left off: large carriers
phosphorylation of Mcm2 on S108 ([4]; immunoblotting): significantly elevated phosphorylation
phosphorylation of S108 ([4]; indirect immunofluorescence): increase in the phosphorylation of S108

B6: XtopBP1Δ993-1196: full-length version of XtopBP1 in which most of the ATR-activating domain had been deleted (protein)
chain: MASSENEPFCVKFIKSPENSEYFFKAYEAIKQIQSDESLQLTEEREALLLKEKDKSLYICDPFSGAAFSHLKKLGCRIVGPQVVIFCMENQRRVPRAEYPVYNMAMADVTISCTSLDKETREDVHHYVQIMGGCVYRDLNVSVTHLIAGEVGSKKYLVAASLEKPILLPSWVKELWEKSNQRIIRYSDVNMTEYLCPIFRGCTICVTGLSSLDRKEVQRLTALHGGEYTGQLKMNESTHLIVQEAKGQKYECARKWNVHCISVQWFFDSIEKGFCQDETMYKIEPASTIKSVPDTSTPTGGNSKPNSRALYDVSQISNISTSCVNESAFNSAMASRLDPPADTLENLDISSLQAPDDLLDGCRIYLCGFGGRKLDKLRKLINNGGGVRFNQLTGDVTHIIVGETDEELKQFLNKTQHRPYVLTVKWLLDSFAKGHLQPEEIYFHSSYQQTEMPSPFEPAINLTANKMSSTRGPLNHTRNHQADEDLLSQYTENNSTLIEDEHPKTSNTNSISQMSMHEDMTTCTSQSGLADTSTIIEGGLFSRKQFMVLGFLEEDEACIIDIIKKSAGKVLSSQKRAIADYAVVPLLGCEVESTVGEVVTNAWLGMCIEQEKLLDPHSNALFTPVPFLEGSTPLRECVLSVSQFMGAERDSLVYLAGLLGAKVQEFFVRKANPKKGMFASTHLVLKDAEGSKYEAAKKWNLPAVTMNWLLQCARTGRKADEDSYLVDNVPEEDKDESFISQTYKPQAIRLSMHAPCHLENHPEALTKAAVTPLDMNRFKSKAFQSVISQHNKNPQTSGGESKVLQREPSLHLDTPSKFLSKDKLFKPSFDVKDALAALETPGGPNQKNRTQSTPLSEVIGRNLQLAIANSTRQTAAVTASPQLKAAEKKEFDNSKLLINVVICVSKKLIKKQGELNGIAASLGAEYRWCFDESVTHFIYHGRQNDMSREYKSVKERSGIYIVSEHWLFACSEQQKRVPEALYPHTYNPKMSLEFEPKSAMRTPVIENNLQSPTKPDHLTPTPQAPSIAFPLANPPVAPQPREKPVQPFSKEETLKERRFQLSSLDPQERIDYSQLIEELGGVVIEKQCFDPSCTHIVVGHPLRNEKYLASMAAGKWVLHRSYLEACRAAKRFIQEEDYEWGSISILSAVTNINPQQRMLAEAAMRWRKKLQGIKQNMGIAEGAFSGWKVILNVDQTKEPGFKRLLQSGGAKVFAGHSSPLFKEASHLFADFSKLKPDEPRVNVAEAAAQGVNCLKPEYIADYLMKELPPPMNNYCLPDAIPYVRVTGTGLSRKRKTSGDVSDVKRSRHY
modifications: left off: small tags and cut ends
activation of Xatr kinase activity toward PHAS-I [1]: no Xatr-activating capacity

— patent US8080531B2, “Methods for modulating checkpoint activation through TopBP1” (California Institute of Technology, priority 2006, dated 2011)
